Data taken from article PMC4866497.
Like-named read-outs stand apart in the source and are kept apart here.

Experiments:
[1] = molecular target: EGFR domain 3 - Fc, wild-type CH3; experiment: FRET or BRET
[2] = tested on: MetMab full heavy chain with K409D K392D, with MetMab light chain; experiment: SEC
[3] = tested on: MetMab full heavy chain with K409D K392D, with MetMab light chain; experiment: SEC; remark: listed apart in the source
[4] = tested on: MetMab full heavy chain with Y349S K370Y T366M K409V, with MetMab light chain; experiment: SEC
[5] = tested on: MetMab full heavy chain with Y349S K370Y T366M K409V, with MetMab light chain; experiment: SEC; remark: listed apart in the source
[6] = tested on: MetMab full heavy chain with Y349S K370Y T366V K409V, with MetMab light chain; experiment: SEC
[7] = tested on: MetMab full heavy chain with Y349S K370Y T366V K409V, with MetMab light chain; experiment: SEC; remark: listed apart in the source
[8] = tested on: MetMab full heavy chain with D399K E356K, with MetMab light chain; experiment: SEC
[9] = tested on: MetMab full heavy chain with D399K E356K, with MetMab light chain; experiment: SEC; remark: listed apart in the source
[10] = tested on: MetMab full heavy chain with T366W, with MetMab light chain; experiment: SEC
[11] = tested on: MetMab full heavy chain with T366W, with MetMab light chain; experiment: SEC; remark: listed apart in the source
[12] = tested on: MetMab full heavy chain with T366S L358V Y407A, with MetMab light chain; experiment: SEC
[13] = tested on: MetMab full heavy chain with T366S L358V Y407A, with MetMab light chain; experiment: SEC; remark: listed apart in the source
[14] = tested on: MetMab full heavy chain with E357D S364R Y407A, with MetMab light chain; experiment: SEC
[15] = tested on: MetMab full heavy chain with E356G E357D S364Q Y407A, with MetMab light chain; experiment: SEC
[16] = tested on: MetMab full heavy chain with E357D S364R Y407A, with MetMab light chain; experiment: SEC; remark: listed apart in the source
[17] = tested on: MetMab full heavy chain with E356G E357D S364Q Y407A, with MetMab light chain; experiment: SEC; remark: listed apart in the source
[18] = tested on: MetMab full heavy chain with E357D S364Q Y407A, with MetMab light chain; experiment: SEC
[19] = tested on: MetMab full heavy chain with E357D S364Q Y407A, with MetMab light chain; experiment: SEC; remark: listed apart in the source
[20] = tested on: MetMab full heavy chain with wild-type CH3, with MetMab light chain [IgG part: P01857]; experiment: SEC
[21] = tested on: MetMab full heavy chain with wild-type CH3, with MetMab light chain [IgG part: P01857]; experiment: SEC; remark: listed apart in the source
IgG1 Fc, wild-type CH3 = experiment: SEC
[22] = molecular target: MetMab full heavy chain with T350V L351Y F405A Y407V, with MetMab light chain; experiment: SEC
[23] = molecular target: MetMab full heavy chain with T350V T366L K392L T394W, with MetMab light chain; experiment: SEC
[24] = molecular target: MetMab full heavy chain with T366V K409V, with MetMab light chain; experiment: SEC
[25] = molecular target: MetMab full heavy chain with T366V K409V, with MetMab light chain; experiment: SEC; remark: listed apart in the source
[26] = molecular target: MetMab full heavy chain with wild-type CH3, with MetMab light chain [IgG part: P01857]; experiment: SEC; remark: listed apart in the source
[27] = tested on: EGFR domain 3 - Fc with K409D K392D; experiment: FRET or BRET
[28] = tested on: EGFR domain 3 - Fc with Y349S K370Y T366M K409V; experiment: FRET or BRET
[29] = tested on: EGFR domain 3 - Fc with Y349S K370Y T366V K409V; experiment: FRET or BRET
[30] = tested on: EGFR domain 3 - Fc with T366W; experiment: FRET or BRET
[31] = molecular target: VEGFR1 domain 3 - Fc, wild-type CH3; experiment: FRET or BRET

EGFR domain 3 - Fc, wild-type CH3 (Fc fusion)
% AA homodimer (co-expressed with m42) [1]: 24.2%

IgG1 Fc with D399K E356K
% AB heterodimer [2]: 91.7%
% AB heterodimer [3]: 37.5%

IgG1 Fc with E356G E357D S364Q Y407A
% AB heterodimer [4]: 83.8%
% AB heterodimer [5]: 23.6%

IgG1 Fc with E357D S364Q Y407A
% AB heterodimer [6]: 84.9%
% AB heterodimer [7]: 11.7%

IgG1 Fc with E357D S364R Y407A
% AB heterodimer [4]: 83.5%
% AB heterodimer [5]: 34.7%

IgG1 Fc with K409D K392D
% AB heterodimer [8]: 93.6%
% AB heterodimer [9]: 29.4%

IgG1 Fc with T366S L358V Y407A
% AB heterodimer [10]: 92.4%
% AB heterodimer [11]: 35%

IgG1 Fc with T366W
% AB heterodimer [12]: 94.1%
% AB heterodimer [13]: 33.1%

IgG1 Fc with Y349S K370Y T366M K409V
% AB heterodimer [14]: 85.5%
% AB heterodimer [15]: 94.2%
% AB heterodimer [16]: 29.9%
% AB heterodimer [17]: 31.8%

IgG1 Fc with Y349S K370Y T366V K409V
% AB heterodimer [18]: 92.5%
% AB heterodimer [19]: 4.7%

IgG1 Fc, wild-type CH3
% AB heterodimer [20]: 51.3%
% AB heterodimer [21]: 27.4%

IgG1 Fc, wild-type CH3 (domain or fragment)
% BB homodimer (co-expressed with m1) (IgG1 Fc, wild-type CH3): 15.9%

MetMab full heavy chain with D399K E356K, with MetMab light chain (complex)
% AA homodimer (co-expressed with m18) [9]: 11.3%

MetMab full heavy chain with K409D K392D, with MetMab light chain (complex)
% AA homodimer (co-expressed with m19) [3]: 19.9%

MetMab full heavy chain with T350V L351Y F405A Y407V, with MetMab light chain (complex)
% AA homodimer (co-expressed with m22) [22]: 9%

MetMab full heavy chain with T350V T366L K392L T394W, with MetMab light chain (complex)
% AA homodimer (co-expressed with m23) [23]: 5.1%

MetMab full heavy chain with T366V K409V, with MetMab light chain (complex)
% AA homodimer (co-expressed with m24) [24]: 4.1%
% AA long dimer (co-expressed with m24) [24]: 3.8%
% AA homodimer (co-expressed with m24) [25]: 28.6%
% AA long dimer (co-expressed with m24) [25]: 24.1%

MetMab full heavy chain with T366W, with MetMab light chain (complex)
% AA homodimer (co-expressed with m21) [11]: 15.7%

MetMab full heavy chain with wild-type CH3, with MetMab light chain (from UniProt P01857 1-399) (complex)
% AA homodimer (co-expressed with m17) [26]: 31.3%
% AA homodimer (co-expressed with m17) [21]: 65%

VEGFR1 domain 3 - Fc with D399K E356K
% AB heterodimer [27]: 96.2%

VEGFR1 domain 3 - Fc with E356G E357D S364Q Y407A
% AB heterodimer [28]: 93.9%

VEGFR1 domain 3 - Fc with E357D S364Q Y407A
% AB heterodimer [29]: 93.3%

VEGFR1 domain 3 - Fc with T366S L358V Y407A
% AB heterodimer [30]: 96.2%

VEGFR1 domain 3 - Fc, wild-type CH3
% AB heterodimer [1]: 61.2%

VEGFR1 domain 3 - Fc, wild-type CH3 (Fc fusion)
% BB homodimer (co-expressed with m35) [31]: 14.6%
